In experiment [1] the target is human GPR49 (G-Protein-coupled Receptor 49) on cells (human) (UniProt O75473). Briefly: cell-based or functional assay.
Experiment [2] deals with Recombinant human GPR49-Fc ectodomain (human). The experiment can be described thus: direct ELISA on coated GPR49-Fc, about 0.1-250 nM, A450; table without unit, nM from the axis [nM] Ab; control whose curve in FIG. 9G is flat (see non_binding), so the fitted value lies outside the range tested and carries no meaning. In general terms: An ELISA detects its analyte on a solid surface through an enzyme-linked reagent.
Sequence of Recombinant human GPR49-Fc ectodomain (human) (chain, as listed by the source limits assumed, form in doubt): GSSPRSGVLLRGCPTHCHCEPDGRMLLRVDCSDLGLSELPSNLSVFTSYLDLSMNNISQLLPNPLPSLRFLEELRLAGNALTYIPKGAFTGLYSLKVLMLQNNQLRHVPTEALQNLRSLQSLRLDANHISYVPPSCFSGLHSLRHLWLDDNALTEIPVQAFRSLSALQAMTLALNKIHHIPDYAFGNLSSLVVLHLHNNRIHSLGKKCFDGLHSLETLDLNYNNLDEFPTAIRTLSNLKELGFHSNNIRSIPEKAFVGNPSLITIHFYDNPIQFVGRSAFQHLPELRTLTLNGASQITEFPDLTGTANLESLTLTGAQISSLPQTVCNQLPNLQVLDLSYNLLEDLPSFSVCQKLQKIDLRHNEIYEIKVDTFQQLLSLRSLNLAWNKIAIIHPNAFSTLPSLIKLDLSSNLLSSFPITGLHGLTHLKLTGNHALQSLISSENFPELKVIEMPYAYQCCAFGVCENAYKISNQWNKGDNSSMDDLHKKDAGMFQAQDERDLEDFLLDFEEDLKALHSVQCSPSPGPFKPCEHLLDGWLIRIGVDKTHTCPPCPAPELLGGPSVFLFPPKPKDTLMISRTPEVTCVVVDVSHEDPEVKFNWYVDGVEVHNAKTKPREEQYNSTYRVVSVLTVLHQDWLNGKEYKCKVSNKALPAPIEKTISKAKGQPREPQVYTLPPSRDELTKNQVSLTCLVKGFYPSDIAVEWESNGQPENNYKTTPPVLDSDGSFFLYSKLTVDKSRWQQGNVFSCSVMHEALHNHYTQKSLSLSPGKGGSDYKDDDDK

For two substances, increase in proliferation, GPR49-3T3 clone 28 and EC50 results are on record in patent publication US20150037324A1.

pEC50: −log10 of the molar value.

The pEC50 is the negative decadic logarithm of the EC50, by convention in mol/L.

Sequence of human GPR49 (G-Protein-coupled Receptor 49) on cells (human) (O75473 22-907 limits assumed): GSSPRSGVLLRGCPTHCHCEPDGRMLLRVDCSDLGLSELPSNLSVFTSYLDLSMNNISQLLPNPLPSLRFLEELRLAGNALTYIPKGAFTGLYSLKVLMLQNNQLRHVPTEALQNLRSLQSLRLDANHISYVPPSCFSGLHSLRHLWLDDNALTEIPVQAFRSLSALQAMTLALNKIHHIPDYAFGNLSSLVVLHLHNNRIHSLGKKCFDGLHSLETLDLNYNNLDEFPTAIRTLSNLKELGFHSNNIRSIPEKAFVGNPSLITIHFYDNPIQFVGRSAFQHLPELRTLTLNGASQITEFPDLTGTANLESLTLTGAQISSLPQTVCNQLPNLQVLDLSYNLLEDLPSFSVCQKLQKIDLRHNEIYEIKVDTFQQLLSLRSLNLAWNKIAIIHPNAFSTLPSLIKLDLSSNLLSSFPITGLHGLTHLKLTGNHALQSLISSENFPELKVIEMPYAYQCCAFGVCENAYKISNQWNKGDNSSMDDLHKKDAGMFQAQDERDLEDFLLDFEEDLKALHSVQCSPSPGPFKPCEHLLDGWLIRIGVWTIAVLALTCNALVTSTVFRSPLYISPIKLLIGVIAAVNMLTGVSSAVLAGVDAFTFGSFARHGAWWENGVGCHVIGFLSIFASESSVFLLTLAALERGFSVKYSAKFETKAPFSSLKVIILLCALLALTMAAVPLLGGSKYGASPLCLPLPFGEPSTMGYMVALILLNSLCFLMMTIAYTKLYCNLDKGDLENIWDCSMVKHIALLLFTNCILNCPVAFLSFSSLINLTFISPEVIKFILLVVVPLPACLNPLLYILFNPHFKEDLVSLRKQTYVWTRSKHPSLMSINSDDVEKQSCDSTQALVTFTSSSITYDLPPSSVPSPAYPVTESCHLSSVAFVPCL

R-spondin-1 (ligand) had an increase in proliferation, GPR49-3T3 clone 28 in experiment [1] of 4 fold.

With Ctrl (antibody), in experiment [2], the pEC50 is 5.80.
